Experimental data from the nanobody polyreactivity screen of Harvey et al. (2022).

test: yeast display, Sf9 membrane polyspecificity reagent, FACS + sequencing; frameworks hold sequencing errors
Procedure, shortened: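 Genes from sorted yeast were amplified by colony PCR, read by MiSeq 2 × 250 sequencing and filtered on CDR length. These cells carried a synthetic nanobody library in Saccharomyces cerevisiae BJ5465 and were sorted by FACS into low and high (top ~1%) gates on anti-HA and streptavidin fluorescence. Polyreactivity is labelled according to the gate of origin.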

Row | Sequence | polyreactivity (PSR sort gate)
1 | QVQLVETGGCLVQAGCSLRLSCAASGIIFYEYAMGRYRQAPGKERELVAAIDWSGGSTYYADSVKGRFTISRDNAKNTVYLQMNRLKPEDSAVYYCAAQWAWVDYFGNWYASTYDYWGQGTQVTVSS | high polyreactivity
2 | QVQLVETGGGIVQAGGSLRLSCASSGRTFNKYAMGRYRKAPGKERELVAAINYSGGRTDYADSVKGRFTISRDNAKNTVYLQMNSLKPDDTAVYYCAASPTFFVWQGYNYWGQGTQVTVSS | low polyreactivity
3 | QVQLVETGGGIVQAGVSLRISCASSGRTFRWYAMGWSRQSPGKERELVAAITSGGGTYYADSVKGLFTISRDYAKNTVYLQMNRLKREDTAVYYCNKLHRDRYDYWGQGTQVTVSS | high polyreactivity
4 | QVQLVETGGGLVHAGGSLRLSCAASGRTFEPNAMGWYRQAPGKERELVATISYSGGRTNYADSVKGRFTISRDNAKNTVYLQMKILKPEDTAVYYCATRTYYRRVCIRDFWGQGTLVTVSS | high polyreactivity
5 | QVQLVETGGGLVQAGGRLRLSCAASGRIFVYYDMGWSIQAPGKERELVAAITSGGDRTYYADSVKGRFTISRDNAKNTVYLQMNSLKPEDTAVYYCNTYYYPYGYWGQGTQVTVSS | high polyreactivity
6 | QVQLVETGGGLVQAGGSHRLSCAASVRTLYKNAMGWYRQEPGKERELVAAISVSGGRTYYADSVKGRFTISRDNAKNTVYFQMNSLKPEDTAVYYCATRLYPISKYGYWGQGTQVTVSS | high polyreactivity
7 | QVQLVETGGGLVQAGGSLRLICAASASTFGYYAMGWYRQAPGKERELVAGIRYRGGSTSYADSVKGRFTISRDNAKNTVYLQLNSLKREDTAVYYCANGIYRGRTSSFRMGYWGQVTQVTVSS | low polyreactivity
8 | QVQLVETGGGLVQAGGSLRLSCAASGFIFIHNAMGWYRQAPGKERELVAAISYSGGSTYYADSVKGRFTISRDNEKNTVYLQMNSLKPEDTAVYYCAARGALHHWYRYDDWGQGTQVTVSS | low polyreactivity
9 | QVQLVETGGGLVQAGGSLRLSCAASGFTFRPYVMGWYRQPPGKERELVAGITWDGDSTYYADSVKGRFTISRDNPKNTVYLQMNSLKPEDTAVYYCAAEDADWVSQYYYWGQGTQVTVSS | high polyreactivity
10 | QVQLVETGGGLVQAGGSLRLSCAASGFTFWYNDMGWYRQPPGKEREFVAAINSGGSTNDADSVKGRFTISRDNAKNTVYLQMNSLKPEDTAVYYCNADWFTPAQPWYRYFIRYDYWGQGTQVTVSS | low polyreactivity
11 | QVQLVETGGGLVQAGGSLRLSCAASGFTILGYDMGWYRQAHGKERELVAAFDYSGGSTYYADSVKGRFTISRDNAQNTVYLQMNSLKPEDTAVYYCAAYTGKGRAYFRWMDYWGQGTQVTVSS | high polyreactivity
12 | QVQLVETGGGLVQAGGSLRLSCAASGFTIQRYAMGWYRQAPGKEREFVAAITSGGSTYYADSVKGRFTISRDNAKNTVYLQMNSLKPEDTAVYYCATRAVWSSWGRRYDSWGQGTQVTVSS | high polyreactivity
13 | QVQLVETGGGLVQAGGSLRLSCAASGFTSLTYAMGWYRQAPGKERELVAAITFSGGSTYYADSVKGRFTISRDNAKNTVYLQMNSLKPEDTAVYYCARDGLWYNAIWEYDYWGLGTQVTVSS | high polyreactivity
14 | QVQLVETGGGLVQAGGSLRLSCAASGIIFYGYAMGWYRQAPGKERELVAAITYSGGSTYYADSVKGRFTISRDNAKNTVYLQMNSLKPEDTAVYYCRYDIWVWWSGAYDYWGQGTQVTVSS | low polyreactivity
15 | QVQLVETGGGLVQAGGSLRLSCAASGIIIGYYAMGWYRQAPGKEREMVAAINQDGSSTYYADSVKGRFTISRDNAKNTVYLQMNSLTPEDTAVYYCNARGVPRQDARMGYWGQGTQVTVSS | low polyreactivity
16 | QVQLVETGGGLVQAGGSLRLSCAASGITFSDNAMGWYIQAPVKERELVADISYGGGNTYYADSVQGRFTISRDNAKYTVYLQMNSLKPEDTAVYYCAAVYYFLWYGYYLALDYWGQGTQVTVSS | high polyreactivity
17 | QVQLVETGGGLVQAGGSLRLSCAASGLIFRNNVMGWYRQAPGKERELVAAIRESGGRTYYADSVKGRFTISRDNAKNTVYLQMNSLKPEDTAVYYCAADSRVGFGRLYGYWGQGTQVTVSS | high polyreactivity
18 | QVQLVETGGGLVQAGGSLRLSCAASGNMFVTYDMGWYRKAPGKERELVASISWNGGSTNYADSVKGRFTISRDNAKNTVYLQMNSLKPEDTAVYYCAVDYARDKGYPYGYWGQGTQVTVSS | low polyreactivity
19 | QVQLVETGGGLVQAGGSLRLSCAASGRIFEIYAMGWYRQAPGKERELVAAIDESGGSTYYADSVKGRFTISRDNGKNTVYLQMNSLKPEDTAVYYCATDDTWTITYGWYWFTYEYWGQCTQVTVSS | low polyreactivity
20 | QVQLVETGGGLVQAGGSLRLSCAASGRIFKRNTMGWYRQAPGKEREFVASITFSGGSTNYADSVKGRFTISRDNAKNTVYLQMNSLKPEDTAVYYCAARDYHYSTYDYWGQGTQVTVSS | low polyreactivity
21 | QVQLVETGGGLVQAGGSLRLSCAASGRIFRFYDMGWYRQAPGQERELVATINPTGGSTSYADSVKGRFTISRDNAKNTVYLQMNSLNPEDTAVYYCAADSWYSVRKTWSRSGSFPFDYWGQGTQVTVSS | high polyreactivity
22 | QVQLVETGGGLVQAGGSLRLSCAASGRIFWLYAMGWYRQAPGKERELVASISSGGTTHYADSVKGRFTISRDNAKNTVYLQMNSLKPEDTAVYYCAVRPYYSWAYYYWGQGTQVTLSS | high polyreactivity

Row | Sequence | polyreactivity (PSR sort gate)
23 | QVQLVETGGGLVQAGGSLRLSCAASGRTFARNAMGWYRQAPGKERELVAAISRRGGNTYYADSVKGRFTISRDNAKNTVYLQMNSLKPEDTAVYYCAVRWPSARIPVKLDYWGQGTQVTVSS | high polyreactivity
24 | QVQLVETGGGLVQAGGSLRLSCAASGRTFARYAMGWYRQAPGTERELVAAISWGGTRTYYADSVKGRFTISRDNAKNTVYLQMNSLKPEDTAVYYCAATYLYRDQPKWGGFAYTYGLWGQGTQVTVSS | high polyreactivity
25 | QVQLVETGGGLVQAGGSLRLSCAASGRTFTRYAMGWYRQAPGKERELVAAISSSGASTYYADSVKGRFTISRDNAKNTVYLQMNSLKPEDTAVYYCAAKQTRPSGFGYWGQGTQVTVSS | high polyreactivity
26 | QVQLVETGGGLVQAGGSLRLSCAASGRTIRKYAMGWYRQAPGKERELVAAISWSGGSTYYANSVKGRFTISRDNAKNTVYLQMKSLKPVDTEVYYCAAVPVHTGSLYWGFTTGYDYWGQGTQVTVSS | low polyreactivity
27 | QVQLVETGGGLVQAGGSLRLSCAASGRTYRFNAMGWYRQAPGKERELVASINSGVRTYYADSVKGRFTISRDNAKNTVYLQMNSLKPEDSAVYYCAARYRVRYYERDYWGQGTQVTVSS | high polyreactivity
28 | QVQLVETGGGLVQAGGSLRLSCAASGRTYVYNAMGWYRQAPGKERELVAAIDGGGDRTYYADSVKGRFTISRDNAKNTVYLQMNSLKPEDTAVYYCARDPGDTYYYSYQEGDYWGQGTQVTVSS | low polyreactivity
29 | QVQLVETGGGLVQAGGSLRLSCAASGSIFGFYAMGWYRQAPGKERELVAAIDSGDSTNYADSVKGRFTISRDNAKNTVYLQMNSLKPEDTAVYYCYAEAWWYFWFDYWGQGTQVTVSS | low polyreactivity
30 | QVQLVETGGGLVQAGGSLRLSCAASGSIFIWYAMGWYRQAPGKERELVAAIRSGGSTYYADSVKGRFTISRDNAKNTVYFQMNRLKPEDTAVYYCAKVLSWRGNRYNYWGQGTQVTVSS | low polyreactivity
31 | QVQLVETGGGLVQAGGSLRLSCAASGSIFYPNAMGWYRQAPGKERELVAAISSSGGTNYADSVKGRFTISRDNAKNTVYLQMNSLKPEDTAVYYCNARDKVRYRYSRMDYWGQGTQVTVSS | low polyreactivity
32 | QVQLVETGGGLVQAGGSLRLSCAASGSTFHGYAMGWYRQEPGKERELVAAITSGDSTNYADSVKGRFTISRDNAKNTVYLQMNSLKPEDTAVYYCNAEGSSVLTGYWGYPPYWDTYDYWGQGTQVTVSS | low polyreactivity
33 | QVQLVETGGGLVQAGGSLRLSCAASGSTFQLYAMGWYRQAPGKERDFVAAISNGGRTNYADSVKGRFTISRDNAKNTVYLQMTSLKPEDTAVYYCNADQVWWSFDRVLVGYEYWGKGTQVTVSS | low polyreactivity
34 | QVQLVETGGGLVQAGGSLRLSCAASGSTFYAYVMGWYRQAPGKERELVAAITSAGSTYYADSVKGRFTISLDNAKNTVYLQMNSLKPEDTAVYYCAADAYTESAYYKYDYWGQGTQVTVSS | low polyreactivity
35 | QVQLVETGGGLVQAGGSLRLSCAASGSTFYHNAMGWYRQAPGKERELVAAISIGGGRTYYADSVKGRFTISRDNAKNTVYLQMNSLKPEDTAVYYCAAGSPAVYGRGFNYWGQGTQVTVSS | low polyreactivity
36 | QVQLVETGGGLVQAGGSLRLSCAASGSTFYRNTKGCYRQAPGKEREFVAGISDRGTSTYYADSVKGRFTISRDNAKNTVYLQMNSLKPEDTAVYYCNKRSWPAYVHKYDYWGQGTQVTVSS | low polyreactivity
37 | QVQLVETGGGLVQAGGSLRLSCAASGSTVRFNAMGWYRQAPGKERELVAVIRWRGGTTYYADSVKGRFTISRDNAKNTVYLQMNSLKPVDTAVYYCNADYWFSYTWHGSYTVGYWGQGTQVTVSS | high polyreactivity
38 | QVQLVETGGGLVQAGGSLRLSCAASGYILINAMGLYRQAPGKERELVASISWSSGSTYYADSVKGRFTISRDNAKNTVFLQMNSLKPEDTAVYYCAATAWDRWSYRYEYWGQGTQVTVSS | low polyreactivity
39 | QVQLVETGGGLVQAGGSLRLSCAAYGRIFAIYAMGWYRQAPGKDRELVAAISRSGGSTSYADSVKGRFTISRDNAKNTVYLQMNSLKPEDTAVYYCARRITYYQLSRQRYDYWGQGTQVTVSS | high polyreactivity
40 | QVQLVETGGGLVQAGGSLRLSCADSGRIFRYYVMGWYRQAPGKERELVAAISRSGGSTYYADSVKGRFTISRDNAKNTVYLQMNSLKPEETAVYYCAKRVSTYGFSGYDYWGQGTQVTVSS | high polyreactivity
41 | QVQLVETGGGLVQAGGSLRLSCAPSGIIISHYAKGWYRQAPGKETELVAAISSRGGSTYYADSVKGRFTISRDIAKNTVYLQMNSLKPEDTAVYYCATTDPYDSSYYIYYYWGQGTQVTVSS | high polyreactivity
42 | QVQLVETGGGLVQAGGSLRLSCAPSGINFTGYDMGWYRQAPGKERELVAAITSGGSTYYADSVKGRFTISRDNAKNTVYLQMNSLKPEDTAVYYCAARAKLTGYWGQGTQVTVSS | high polyreactivity
43 | QVQLVETGGGLVQAGGSLRLSCDASGRIFGGYAMGWYRKAPGKERELVAAISASGGRTYYADSVKGRFTISRDNAKNTVYLQMNSLKPEDNAVYYCAASFRRTSLRWLGEYWGQGTQVTVSS | high polyreactivity
